Test results from patent US20230406950A1 (LYVGEN BIOPHARMA, published 2023).

B1: Ly461 (bispecific antibody, human IgG1, kappa)
heavy: QVQLVQSGAEVKKPGASVKVSCKASGYTFAGFEMHWVRQAPGQGLEWMGAIDPKTGGTDYNQKFKDRVTMTRDTSISTAYMELSRLRSDDTAVYYCARDLGYFDVWGQGTLVTVSSASTKGPSVFPLAPSSKSTSGGTAALGCLVKDYFPEPVTVSWNSGALTSGVHTFPAVLQSSGLYSLSSVVTVPSSSLGTQTYICNVNHKPSNTKVDKKVEPKSCDKTHTCPPCPAPELLGPSVFLFPPKPKDTLMISRTPEVTCVVVDVSHEDPEVKFNWYVDGVEVHNAKTKPREEQYNSTYRVVSVLTVLHQDWLNGKEYKCKVSNKALPAPIEKTISKAKGQPREPQVYTLPPSREEMTKNQVSLTCLVKGFYPSDIAVEWESNGQPENNYKTTPPVLDSDGSFFLYSKLTVDKSRWQQGNVFSCSVMHEALHNHYTQKSLSLSPGGGGGSGGGGSGGGGSGGGGSNIQMTQSPSSLSASVGDRVTITCKAGQNVNNYLAWYQQKPGKAPKVLIFNANSLQTGVPSRFSGSGSGTDFTLTISSLQPEDFATYYCQQYNSWPTFGGGTKVEIKRTVAAPSVFIFPPSDEQLKSGTASVVCLLNNFYPREAKVQWKVDNALQSGNSQESVTEQDSKDSTYSLSSTLTLSKADYEKHKVYACEVTHQGLSSPVTKSFNRGEC
light: DIQMTQSPSSLSASVGDRVTITCRASQDIRSNLNWYQQKPGGAVKLLIYYTSRLHSGVPSRFSGSGSGTDYTLTISSLQPEDFATYFCQQSEKLPRTFGGGTKVEIRRTVAAPSVFIFPPSDEQLKSGTASVVCLLNNFYPREAKVQWKVDNALQSGNSQESVTEQDSKDSTYSLSSTLTLSKADYEKHKVYACEVTHQGLSSPVTKSFNRGEC
chain: QVTLKESGPALVKPTQTLTLTCTFSGFSLSTSGTCVSWIRQPPGKALEWLATICWEDSKGYNPSLKSRLTISKDTSKNQAVLTMTNMDPVDTATYYCARREDSGYFWFPYWGQGTLVTVSSASTKGPSVFPLAPSSKSTSGGTAALGCLVKDYFPEPVTVSWNSGALTSGVHTFPAVLQSSGLYSLSSVVTVPSSSLGTQTYICNVNHKPSNTKVDKKVEPKSCDK
notes: Three-chain format: Ly1630 heavy chain fused to Ly516 light chain; Ly1630 light chain; Ly516 VH-CH1
B2: Ly515 (bispecific antibody, human IgG2, kappa)
heavy: QVQLVQSGAEVKKPGASVKVSCKASGYTFAGFEMHWVRQAPGQGLEWMGAIDPKTGGTDYNQKFKDRVTMTRDTSISTAYMELSRLRSDDTAVYYCARDLGYFDVWGQGTLVTVSSASTKGPSVFPLAPCSRSTSESTAALGCLVKDYFPEPVTVSWNSGALTSGVHTFPAVLQSSGLYSLSSVVTVPSSNFGTQTYTCNVDHKPSNTKVDKTVERKCCVECPPCPAPPVAPSVFLFPPKPKDTLMISRTPEVTCVVVDVSHEDPEVQFNWYVDGVEVHNAKTKPREEQFNSTFRVVSVLTVVHQDWLNGKEYKCKVSNKGLPAPIEKTISKTKGQPREPQVYTLPPSREEMTKNQVSLTCLVKGFYPSDIAVEWESNGQPENNYKTTPPMLDSDGSFFLYSKLTVDKSRWQQGNVFSCSVMHEALHNHYTQKSLSLSPGGGGGSGGGGSGGGGSGGGGSNIQMTQSPSSLSASVGDRVTITCKAGQNVNNYLAWYQQKPGKAPKVLIFNANSLQTGVPSRFSGSGSGTDFTLTISSLQPEDFATYYCQQYNSWPTFGGGTKVEIKRTVAAPSVFIFPPSDEQLKSGTASVVCLLNNFYPREAKVQWKVDNALQSGNSQESVTEQDSKDSTYSLSSTLTLSKADYEKHKVYACEVTHQGLSSPVTKSFNRGEC
light: B1 light
chain: B1 chain
notes: as for B1

Biological target: T1, human CD137 expressed on cells (human, UniProt Q07011 24-255)
T1 construct: whole, on cells; also called 4-1BB; TNFRSF9
Experiment: flow cytometry (FACS), MFI, CHO cells expressing human CD137
Experimental: Exemplary anti-PD-1/CD137 bi-specific antibodies were analyzed by FACS for their binding properties to human PD-1 and/or human CD137 expressed on CHO cells. Briefly, cultured cells were harvested, counted and cell viability was evaluated using the Trypan Blue exclusion method. Viable cells were then adjusted to 2×10⁶ cells per mL in PBS containing 2% BSA. 100 μL of this cell suspension were further aliquoted per well into a V-bottom 96-well plate. […] After incubation for 2 hours at 4° C., cells were centrifuged (3 min, 1000× g), washed with 250 μL/well BSA-containing FACS Stain Buffer, resuspended and incubated for an additional 1 hour at 4° C. with 100 μL/well fluorochrome-conjugated anti-IgG antibody for detection of the bisepecific antibody. Cells were then washed with 250 μL/well BSA-containing FACS Stain Buffer, resuspended in 100 μL/well FACS Stain Buffer, acquired and analyzed using a FACS machine. Binding of the bispecific antibodies to human PD-1 or human CD137 expressing CHO cells were evaluated and the mean fluorescence intensity is plotted in histograms or dot plots.

T1 sequence (Q07011 24-255): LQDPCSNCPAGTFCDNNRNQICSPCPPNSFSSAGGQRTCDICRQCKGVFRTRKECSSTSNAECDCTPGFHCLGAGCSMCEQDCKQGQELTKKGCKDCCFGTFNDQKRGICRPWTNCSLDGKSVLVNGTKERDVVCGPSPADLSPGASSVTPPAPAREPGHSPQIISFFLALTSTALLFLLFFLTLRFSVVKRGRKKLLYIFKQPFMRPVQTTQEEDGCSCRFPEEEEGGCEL

Binder	EC50 (read off the curve) [µg/mL]
B1	~0.1
B2	~0.1
